Results: paper PMC9482650, “Quantitative fragmentomics allow affinity mapping of interactomes” (Nature Communications, 2022)

These binders were tested against Inadl_4, Q8NI35 (assay: holdup assay). Conditions: plain residues with an end cap or a label only (N-terminal biotin on a linker: ado-ado).
Sequence of Inadl_4, Q8NI35 (Q8NI35 547-651): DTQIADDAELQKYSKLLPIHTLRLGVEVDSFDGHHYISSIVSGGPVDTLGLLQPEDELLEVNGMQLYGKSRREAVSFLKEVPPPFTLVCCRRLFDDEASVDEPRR
Parameters: key: below the threshold = too weak to quantify, mostly under pKd 3.1 to 4
With RALRASESGI [ADGRE5, P48960] the pKd was “below the threshold”. In the case of GCQGETEDVL [PTH2R, P49190], the pKd is reported as “below the threshold”.

The binders below were run against T1, MPDZ_10, O75970 (assay: holdup assay). Conditions: plain residues with an end cap or a label only (N-terminal biotin on a linker: ado-ado).
T1 sequence (O75970 1624-1722, limits assumed, looked up): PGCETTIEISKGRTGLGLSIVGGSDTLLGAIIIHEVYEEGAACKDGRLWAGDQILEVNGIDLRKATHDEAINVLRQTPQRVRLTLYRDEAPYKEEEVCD
Parameters: key: below the threshold = too weak to quantify, mostly under pKd 3.1 to 4
With RALRASESGI [ADGRE5, P48960] the pKd was “below the threshold”. For GCQGETEDVL [PTH2R, P49190], the pKd was “below the threshold”.

These binders were tested against MAGI3_2, Q5TCQ9 (assay: holdup assay). Conditions: plain residues with an end cap or a label only (N-terminal biotin on a linker: ado-ado).
Sequence of MAGI3_2, Q5TCQ9 (Q5TCQ9 398-503): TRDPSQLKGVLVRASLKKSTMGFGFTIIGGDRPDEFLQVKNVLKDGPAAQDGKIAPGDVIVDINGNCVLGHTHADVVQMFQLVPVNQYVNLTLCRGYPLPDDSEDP
Parameters: key: below the threshold = too weak to quantify, mostly under pKd 3.1 to 4
In the case of RALRASESGI [ADGRE5, P48960], the pKd is reported as “below the threshold”. For GCQGETEDVL [PTH2R, P49190], the pKd was “below the threshold”.

These binders were tested against PTPN3, P26045 (assay: holdup assay). Conditions: plain residues with an end cap or a label only (N-terminal biotin on a linker: ado-ado).
Sequence of PTPN3, P26045 (P26045 505-587): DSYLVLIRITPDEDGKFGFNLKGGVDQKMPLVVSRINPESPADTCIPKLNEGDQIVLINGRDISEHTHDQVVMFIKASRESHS
Parameters: key: below the threshold = too weak to quantify, mostly under pKd 3.1 to 4
Work on RALRASESGI [ADGRE5, P48960] yielded a pKd of 4.13. GCQGETEDVL [PTH2R, P49190] was tested, and the pKd was 3.78.

These binders were tested against Inadl_1, Q8NI35 (assay: holdup assay). Conditions: plain residues with an end cap or a label only (N-terminal biotin on a linker: ado-ado).
Sequence of Inadl_1, Q8NI35 (Q8NI35 113-229): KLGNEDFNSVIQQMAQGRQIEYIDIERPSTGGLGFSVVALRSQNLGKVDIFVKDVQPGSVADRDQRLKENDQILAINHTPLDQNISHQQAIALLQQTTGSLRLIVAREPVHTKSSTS
Parameters: key: below the threshold = too weak to quantify, mostly under pKd 3.1 to 4
For RALRASESGI [ADGRE5, P48960], the pKd was “below the threshold”. With GCQGETEDVL [PTH2R, P49190] the pKd was “below the threshold”.

Each binder was assayed against T2, SNTA1, Q13424 (assay: holdup assay). Conditions: plain residues with an end cap or a label only (N-terminal biotin on a linker: ado-ado).
T2 sequence (Q13424 82-180, limits assumed, looked up): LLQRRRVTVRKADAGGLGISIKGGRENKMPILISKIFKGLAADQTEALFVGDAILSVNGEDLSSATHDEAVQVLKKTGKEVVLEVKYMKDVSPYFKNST
Parameters: key: below the threshold = too weak to quantify, mostly under pKd 3.1 to 4
For RALRASESGI [ADGRE5, P48960], the pKd was “below the threshold”. GCQGETEDVL [PTH2R, P49190] was tested, and the pKd was 3.9.

The binders below were run against MAGI2_2, Q86UL8 (assay: holdup assay). Conditions: plain residues with an end cap or a label only (N-terminal biotin on a linker: ado-ado).
Sequence of MAGI2_2, Q86UL8 (Q86UL8 410-522): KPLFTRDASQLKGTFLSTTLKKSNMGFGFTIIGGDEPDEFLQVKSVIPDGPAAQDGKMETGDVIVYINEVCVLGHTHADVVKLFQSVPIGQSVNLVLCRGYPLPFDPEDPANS
Parameters: key: below the threshold = too weak to quantify, mostly under pKd 3.1 to 4
For RALRASESGI [ADGRE5, P48960], the pKd was “below the threshold”. In the case of GCQGETEDVL [PTH2R, P49190], the pKd is reported as “below the threshold”.

Each binder was assayed against GRIP2_3, Q9C0E4 (assay: holdup assay). Conditions: plain residues with an end cap or a label only (N-terminal biotin on a linker: ado-ado).
Sequence of GRIP2_3, Q9C0E4 (Q9C0E4 238-339): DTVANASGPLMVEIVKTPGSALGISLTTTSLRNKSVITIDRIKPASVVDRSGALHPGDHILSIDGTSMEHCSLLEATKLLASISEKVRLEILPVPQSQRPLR
Parameters: key: below the threshold = too weak to quantify, mostly under pKd 3.1 to 4
For RALRASESGI [ADGRE5, P48960], the pKd was “below the threshold”. With GCQGETEDVL [PTH2R, P49190] the pKd was “below the threshold”.

These binders were tested against MAGI2_5, Q86UL8 (assay: holdup assay). Conditions: plain residues with an end cap or a label only (N-terminal biotin on a linker: ado-ado).
Sequence of MAGI2_5, Q86UL8 (Q86UL8 915-1017): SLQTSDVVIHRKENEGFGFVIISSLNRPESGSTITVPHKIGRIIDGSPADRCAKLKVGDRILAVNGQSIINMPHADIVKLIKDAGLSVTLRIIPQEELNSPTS
Parameters: key: below the threshold = too weak to quantify, mostly under pKd 3.1 to 4
With RALRASESGI [ADGRE5, P48960] the pKd was “below the threshold”. GCQGETEDVL [PTH2R, P49190] was tested, and the pKd was “below the threshold”.

These binders were tested against T3, GRIP1_5, Q9Y3R0 (assay: holdup assay). Conditions: plain residues with an end cap or a label only (N-terminal biotin on a linker: ado-ado).
T3 sequence (Q9Y3R0 568-668, limits assumed, looked up): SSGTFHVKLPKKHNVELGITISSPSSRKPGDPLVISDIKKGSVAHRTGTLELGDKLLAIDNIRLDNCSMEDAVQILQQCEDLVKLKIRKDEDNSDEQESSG
Parameters: key: below the threshold = too weak to quantify, mostly under pKd 3.1 to 4
With RALRASESGI [ADGRE5, P48960] the pKd was “below the threshold”. With GCQGETEDVL [PTH2R, P49190] the pKd was “below the threshold”.

These binders were tested against T4, LNX2_3, Q8N448 (assay: holdup assay). Conditions: plain residues with an end cap or a label only (N-terminal biotin on a linker: ado-ado).
T4 sequence (Q8N448 463-564, limits assumed, looked up): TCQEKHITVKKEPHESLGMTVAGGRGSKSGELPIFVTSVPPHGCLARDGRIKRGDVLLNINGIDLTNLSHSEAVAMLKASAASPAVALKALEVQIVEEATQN
Parameters: key: below the threshold = too weak to quantify, mostly under pKd 3.1 to 4
In the case of RALRASESGI [ADGRE5, P48960], the pKd is reported as “below the threshold”. GCQGETEDVL [PTH2R, P49190] was tested, and the pKd was “below the threshold”.

These binders were tested against DLG1_2, Q12959 (assay: holdup assay). Conditions: plain residues with an end cap or a label only (N-terminal biotin on a linker: ado-ado).
Sequence of DLG1_2, Q12959 (Q12959 314-412): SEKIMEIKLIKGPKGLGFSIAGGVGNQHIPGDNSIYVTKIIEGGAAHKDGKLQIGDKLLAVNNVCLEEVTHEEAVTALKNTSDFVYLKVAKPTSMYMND
Parameters: key: below the threshold = too weak to quantify, mostly under pKd 3.1 to 4
RALRASESGI [ADGRE5, P48960] was tested, and the pKd was “below the threshold”. In the case of GCQGETEDVL [PTH2R, P49190], the pKd is reported as “below the threshold”.

The binders below were run against NHERF4_2, Q86UT5 (assay: holdup assay). Conditions: plain residues with an end cap or a label only (N-terminal biotin on a linker: ado-ado).
Sequence of NHERF4_2, Q86UT5 (Q86UT5 220-308): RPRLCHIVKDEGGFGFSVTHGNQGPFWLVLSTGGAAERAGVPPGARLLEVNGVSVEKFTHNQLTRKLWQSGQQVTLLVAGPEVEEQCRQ
Parameters: key: below the threshold = too weak to quantify, mostly under pKd 3.1 to 4
For RALRASESGI [ADGRE5, P48960], the pKd was “below the threshold”. With GCQGETEDVL [PTH2R, P49190] the pKd was “below the threshold”.

These binders were tested against T5, DFNB31_3, Q9P202 (assay: holdup assay). Conditions: plain residues with an end cap or a label only (N-terminal biotin on a linker: ado-ado).
T5 sequence (Q9P202 811-907, limits assumed, looked up): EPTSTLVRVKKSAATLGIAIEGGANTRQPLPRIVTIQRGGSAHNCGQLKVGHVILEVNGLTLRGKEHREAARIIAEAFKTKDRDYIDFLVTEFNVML
Parameters: key: below the threshold = too weak to quantify, mostly under pKd 3.1 to 4
In the case of RALRASESGI [ADGRE5, P48960], the pKd is reported as 3.72. For GCQGETEDVL [PTH2R, P49190], the pKd was “below the threshold”.

These binders were tested against GORASP1, Q9BQQ3 (assay: holdup assay). Conditions: plain residues with an end cap or a label only (N-terminal biotin on a linker: ado-ado).
Sequence of GORASP1, Q9BQQ3 (Q9BQQ3 1-208): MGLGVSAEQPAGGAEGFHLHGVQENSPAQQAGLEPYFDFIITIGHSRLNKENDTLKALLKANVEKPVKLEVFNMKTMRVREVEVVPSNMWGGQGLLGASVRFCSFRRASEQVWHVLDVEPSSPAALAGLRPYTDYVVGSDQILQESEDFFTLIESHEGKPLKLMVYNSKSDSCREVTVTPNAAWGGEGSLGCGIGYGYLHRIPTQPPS
Parameters: key: below the threshold = too weak to quantify, mostly under pKd 3.1 to 4
In the case of RALRASESGI [ADGRE5, P48960], the pKd is reported as “below the threshold”. For GCQGETEDVL [PTH2R, P49190], the pKd was “below the threshold”.

Each binder was assayed against T6, RADIL, Q96JH8 (assay: holdup assay). Conditions: plain residues with an end cap or a label only (N-terminal biotin on a linker: ado-ado).
T6 sequence (Q96JH8 971-1071, limits assumed, looked up): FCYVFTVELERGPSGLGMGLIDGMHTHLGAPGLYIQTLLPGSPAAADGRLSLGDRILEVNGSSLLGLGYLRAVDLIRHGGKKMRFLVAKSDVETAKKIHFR
Parameters: key: below the threshold = too weak to quantify, mostly under pKd 3.1 to 4
With RALRASESGI [ADGRE5, P48960] the pKd was “below the threshold”. With GCQGETEDVL [PTH2R, P49190] the pKd was “below the threshold”.

These binders were tested against T7, ARHGEF11, O15085 (assay: holdup assay). Conditions: plain residues with an end cap or a label only (N-terminal biotin on a linker: ado-ado).
T7 sequence (O15085 42-136, limits assumed, looked up): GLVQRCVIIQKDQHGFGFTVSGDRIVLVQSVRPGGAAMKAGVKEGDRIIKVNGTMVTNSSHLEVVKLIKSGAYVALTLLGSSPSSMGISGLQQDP
Parameters: key: below the threshold = too weak to quantify, mostly under pKd 3.1 to 4
With RALRASESGI [ADGRE5, P48960] the pKd was “below the threshold”. GCQGETEDVL [PTH2R, P49190] was tested, and the pKd was “below the threshold”.

The binders below were run against DLG2_3, Q15700 (assay: holdup assay). Conditions: plain residues with an end cap or a label only (N-terminal biotin on a linker: ado-ado).
Parameters: key: below the threshold = too weak to quantify, mostly under pKd 3.1 to 4
In the case of RALRASESGI [ADGRE5, P48960], the pKd is reported as “below the threshold”. For GCQGETEDVL [PTH2R, P49190], the pKd was “below the threshold”.

The binders below were run against MAGI2_6, Q86UL8 (assay: holdup assay). Conditions: plain residues with an end cap or a label only (N-terminal biotin on a linker: ado-ado).
Sequence of MAGI2_6, Q86UL8 (Q86UL8 1141-1229): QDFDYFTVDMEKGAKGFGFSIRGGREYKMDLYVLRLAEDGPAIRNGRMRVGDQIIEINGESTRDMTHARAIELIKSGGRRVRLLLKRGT
Parameters: key: below the threshold = too weak to quantify, mostly under pKd 3.1 to 4
In the case of RALRASESGI [ADGRE5, P48960], the pKd is reported as “below the threshold”. In the case of GCQGETEDVL [PTH2R, P49190], the pKd is reported as “below the threshold”.

Each binder was assayed against FRMPD2_2, Q68DX3 (assay: holdup assay). Conditions: plain residues with an end cap or a label only (N-terminal biotin on a linker: ado-ado).
Sequence of FRMPD2_2, Q68DX3 (Q68DX3 944-1038): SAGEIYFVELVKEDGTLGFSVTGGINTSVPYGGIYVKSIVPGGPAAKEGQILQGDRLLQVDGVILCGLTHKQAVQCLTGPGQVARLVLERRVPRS
Parameters: key: below the threshold = too weak to quantify, mostly under pKd 3.1 to 4
RALRASESGI [ADGRE5, P48960] was tested, and the pKd was “below the threshold”. In the case of GCQGETEDVL [PTH2R, P49190], the pKd is reported as “below the threshold”.

These binders were tested against T8, CARD11, Q9BXL7 (assay: holdup assay). Conditions: plain residues with an end cap or a label only (N-terminal biotin on a linker: ado-ado).
T8 sequence (Q9BXL7 662-765, limits assumed, looked up): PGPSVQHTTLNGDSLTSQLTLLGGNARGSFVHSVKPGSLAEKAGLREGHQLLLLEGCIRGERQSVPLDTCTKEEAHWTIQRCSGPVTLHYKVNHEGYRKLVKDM
Parameters: key: below the threshold = too weak to quantify, mostly under pKd 3.1 to 4
In the case of RALRASESGI [ADGRE5, P48960], the pKd is reported as “below the threshold”. For GCQGETEDVL [PTH2R, P49190], the pKd was “below the threshold”.

These binders were tested against T9, NHERF3_1, Q5T2W1 (assay: holdup assay). Conditions: plain residues with an end cap or a label only (N-terminal biotin on a linker: ado-ado).
T9 sequence (Q5T2W1 4-100, limits assumed, looked up): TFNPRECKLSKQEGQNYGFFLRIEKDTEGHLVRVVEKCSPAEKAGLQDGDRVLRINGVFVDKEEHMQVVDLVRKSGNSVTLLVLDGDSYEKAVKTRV
Parameters: key: below the threshold = too weak to quantify, mostly under pKd 3.1 to 4
With RALRASESGI [ADGRE5, P48960] the pKd was “below the threshold”. GCQGETEDVL [PTH2R, P49190] was tested, and the pKd was 3.98.

These binders were tested against HTRA2, O43464 (assay: holdup assay). Conditions: plain residues with an end cap or a label only (N-terminal biotin on a linker: ado-ado).
Sequence of HTRA2, O43464 (O43464 355-458): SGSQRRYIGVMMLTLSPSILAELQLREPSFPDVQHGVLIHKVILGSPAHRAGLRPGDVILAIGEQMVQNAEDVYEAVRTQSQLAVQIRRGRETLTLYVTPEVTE
Parameters: key: below the threshold = too weak to quantify, mostly under pKd 3.1 to 4
For RALRASESGI [ADGRE5, P48960], the pKd was “below the threshold”. For GCQGETEDVL [PTH2R, P49190], the pKd was “below the threshold”.

What follows are binders tested against DLG1_3, Q12959 (assay: holdup assay). Conditions: plain residues with an end cap or a label only (N-terminal biotin on a linker: ado-ado).
Sequence of DLG1_3, Q12959 (Q12959 457-571): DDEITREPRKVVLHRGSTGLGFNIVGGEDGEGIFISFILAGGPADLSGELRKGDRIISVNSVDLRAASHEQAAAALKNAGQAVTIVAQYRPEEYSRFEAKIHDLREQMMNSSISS
Parameters: key: below the threshold = too weak to quantify, mostly under pKd 3.1 to 4
RALRASESGI [ADGRE5, P48960] was tested, and the pKd was “below the threshold”. For GCQGETEDVL [PTH2R, P49190], the pKd was “below the threshold”.

These binders were tested against GRIP2_5, Q9C0E4 (assay: holdup assay). Conditions: plain residues with an end cap or a label only (N-terminal biotin on a linker: ado-ado).
Sequence of GRIP2_5, Q9C0E4 (Q9C0E4 544-642): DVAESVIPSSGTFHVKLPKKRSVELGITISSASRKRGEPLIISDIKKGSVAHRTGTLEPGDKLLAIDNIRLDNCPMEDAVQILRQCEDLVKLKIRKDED
Parameters: key: below the threshold = too weak to quantify, mostly under pKd 3.1 to 4
RALRASESGI [ADGRE5, P48960] was tested, and the pKd was “below the threshold”. GCQGETEDVL [PTH2R, P49190] was tested, and the pKd was “below the threshold”.

What follows are binders tested against SCRIB_3, Q14160 (assay: holdup assay). Conditions: plain residues with an end cap or a label only (N-terminal biotin on a linker: ado-ado).
Sequence of SCRIB_3, Q14160 (Q14160 999-1103): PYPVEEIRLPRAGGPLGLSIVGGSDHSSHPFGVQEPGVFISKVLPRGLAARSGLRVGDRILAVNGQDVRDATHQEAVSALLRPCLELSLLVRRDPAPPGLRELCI
Parameters: key: below the threshold = too weak to quantify, mostly under pKd 3.1 to 4
RALRASESGI [ADGRE5, P48960] was tested, and the pKd was “below the threshold”. With GCQGETEDVL [PTH2R, P49190] the pKd was 3.92.

The binders below were run against T10, GRIP1_3, Q9Y3R0 (assay: holdup assay). Conditions: plain residues with an end cap or a label only (N-terminal biotin on a linker: ado-ado).
T10 sequence (Q9Y3R0 247-346, limits assumed, looked up): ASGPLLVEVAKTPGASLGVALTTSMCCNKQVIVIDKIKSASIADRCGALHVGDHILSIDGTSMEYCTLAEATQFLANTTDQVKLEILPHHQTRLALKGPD
Parameters: key: below the threshold = too weak to quantify, mostly under pKd 3.1 to 4
RALRASESGI [ADGRE5, P48960] was tested, and the pKd was “below the threshold”. With GCQGETEDVL [PTH2R, P49190] the pKd was “below the threshold”.
